One molecule from patent US20230151095A1 (Xencor, published 2023) can be followed below.

For the experiment, the target named is T1, NKG2D (human, UniProt P26718 78-216, limits assumed).
T1 construct: XENP25379 (human) and XENP25380 (cynomolgus) were the panning antigens; also called Recombinant human NKG2D (XENP25379); CD314
T1 sequence (looked up): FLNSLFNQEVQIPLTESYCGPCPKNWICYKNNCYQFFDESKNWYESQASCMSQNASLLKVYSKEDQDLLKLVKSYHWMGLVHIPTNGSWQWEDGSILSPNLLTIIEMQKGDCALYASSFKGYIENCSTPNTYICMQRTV
Nature of the experiment: ELISA of phage clones on NKG2D.

B1: 1D2B4[NKG2D] (antibody, V domains shown)
VH: EVQLLESGGGLVQPGGSLRLSCAASGFTFSSFGMSWVRQAPGKGLEWVSTISGSGSTTYYADSVKGRFTISRDNSKNTLYLQMNSLRAEDTAVYYCAKGVFSEWHYYFDYWGQGTLVTVSS
VL: not shown
Regarding B1, the binding result is on record as “binds”.
